Consider one molecule from patent US20250262210A1 (TRUSTEES OF COLUMBIA UNIVERSITY IN THE CITY OF NEW YORK, published 2025).

The target of one assay is T1, RNF123 (human, UniProt Q5XPI4 2-1314, limits assumed).
T1 sequence (looked up): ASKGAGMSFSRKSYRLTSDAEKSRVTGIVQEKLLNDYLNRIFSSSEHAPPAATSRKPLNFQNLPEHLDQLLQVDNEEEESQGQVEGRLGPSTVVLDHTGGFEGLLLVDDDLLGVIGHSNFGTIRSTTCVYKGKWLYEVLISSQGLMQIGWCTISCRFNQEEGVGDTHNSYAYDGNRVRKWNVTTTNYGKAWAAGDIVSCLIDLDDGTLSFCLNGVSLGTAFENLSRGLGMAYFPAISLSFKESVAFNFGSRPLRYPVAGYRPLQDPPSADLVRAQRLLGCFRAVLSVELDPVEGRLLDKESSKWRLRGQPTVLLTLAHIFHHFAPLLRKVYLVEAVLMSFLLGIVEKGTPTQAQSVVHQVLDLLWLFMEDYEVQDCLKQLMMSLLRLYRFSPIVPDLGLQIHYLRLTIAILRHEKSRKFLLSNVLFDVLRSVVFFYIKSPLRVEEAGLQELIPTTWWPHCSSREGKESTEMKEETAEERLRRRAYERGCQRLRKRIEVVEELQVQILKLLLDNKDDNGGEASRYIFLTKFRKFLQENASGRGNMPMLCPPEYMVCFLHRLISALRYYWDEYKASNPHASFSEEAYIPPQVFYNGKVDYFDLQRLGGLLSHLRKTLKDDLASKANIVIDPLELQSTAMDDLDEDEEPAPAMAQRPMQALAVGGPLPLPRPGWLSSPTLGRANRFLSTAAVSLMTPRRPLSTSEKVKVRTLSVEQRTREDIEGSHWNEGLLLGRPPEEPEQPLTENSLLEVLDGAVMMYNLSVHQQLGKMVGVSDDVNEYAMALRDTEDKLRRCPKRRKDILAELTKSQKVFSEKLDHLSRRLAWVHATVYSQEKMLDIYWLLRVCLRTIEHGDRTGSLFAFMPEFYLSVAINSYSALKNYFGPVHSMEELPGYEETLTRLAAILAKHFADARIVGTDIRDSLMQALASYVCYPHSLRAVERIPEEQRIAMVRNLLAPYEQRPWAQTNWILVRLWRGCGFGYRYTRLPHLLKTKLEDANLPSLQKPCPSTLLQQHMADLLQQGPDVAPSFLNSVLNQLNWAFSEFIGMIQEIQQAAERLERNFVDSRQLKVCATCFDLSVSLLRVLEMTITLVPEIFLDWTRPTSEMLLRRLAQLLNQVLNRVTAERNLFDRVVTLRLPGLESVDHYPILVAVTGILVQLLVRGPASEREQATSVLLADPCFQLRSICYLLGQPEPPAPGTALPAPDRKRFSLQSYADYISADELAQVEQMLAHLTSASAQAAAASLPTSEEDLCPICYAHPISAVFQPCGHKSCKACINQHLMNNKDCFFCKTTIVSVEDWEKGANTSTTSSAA
Kind of assay: IP/MS, LZTR1 R810W-FLAG, U87. The essentials:
(§1)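 Read-out: spectral counts from LC-MS/MS (Orbitrap Fusion) after MaxQuant identification. Variable modifications were Met oxidation, protein N-terminal acetylation and N/Q deamidation.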

The target of the next assay is T2, SNX14 (human, UniProt Q9Y5W7 1-946, limits assumed).
T2 sequence (looked up): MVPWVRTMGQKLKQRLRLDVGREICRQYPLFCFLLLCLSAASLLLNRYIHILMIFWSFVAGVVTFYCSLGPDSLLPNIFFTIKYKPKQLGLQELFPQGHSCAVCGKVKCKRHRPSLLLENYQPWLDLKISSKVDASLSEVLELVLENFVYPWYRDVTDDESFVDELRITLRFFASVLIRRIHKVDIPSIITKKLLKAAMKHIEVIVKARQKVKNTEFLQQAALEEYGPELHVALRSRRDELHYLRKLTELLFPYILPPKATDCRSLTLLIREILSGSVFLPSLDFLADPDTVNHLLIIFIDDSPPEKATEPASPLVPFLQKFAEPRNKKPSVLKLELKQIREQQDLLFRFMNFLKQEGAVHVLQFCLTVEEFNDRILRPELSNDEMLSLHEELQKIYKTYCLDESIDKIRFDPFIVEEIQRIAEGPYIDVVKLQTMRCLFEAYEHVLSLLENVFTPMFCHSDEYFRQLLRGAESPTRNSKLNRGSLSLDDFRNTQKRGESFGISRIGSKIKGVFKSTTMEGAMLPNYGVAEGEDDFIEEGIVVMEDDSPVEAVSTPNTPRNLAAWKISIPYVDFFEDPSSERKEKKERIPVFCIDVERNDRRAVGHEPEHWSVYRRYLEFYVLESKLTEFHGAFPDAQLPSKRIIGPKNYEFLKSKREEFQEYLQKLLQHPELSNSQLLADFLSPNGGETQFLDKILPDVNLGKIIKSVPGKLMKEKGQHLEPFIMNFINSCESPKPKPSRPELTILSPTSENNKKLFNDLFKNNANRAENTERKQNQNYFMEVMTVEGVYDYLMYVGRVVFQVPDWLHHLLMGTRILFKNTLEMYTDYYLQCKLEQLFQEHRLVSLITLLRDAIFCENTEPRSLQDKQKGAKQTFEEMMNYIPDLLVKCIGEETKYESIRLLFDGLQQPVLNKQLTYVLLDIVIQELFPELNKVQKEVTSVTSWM
Kind of assay: IP/MS, LZTR1 R810W-FLAG, U87. An outline of the steps:
as §1

B1: LZTR1 R810W-FLAG (other, human, UniProt Q8N653 1-840, looked up)
chain: MAGPGSTGGQIGAAALAGGARSKVAPSVDFDHSCSDSVEYLTLNFGPFETVHRWRRLPPCDEFVGARRSKHTVVAYKDAIYVFGGDNGKTMLNDLLRFDVKDCSWCRAFTTGTPPAPRYHHSAVVYGSSMFVFGGYTGDIYSNSNLKNKNDLFEYKFATGQWTEWKIEGRLPVARSAHGATVYSDKLWIFAGYDGNARLNDMWTIGLQDRELTCWEEVAQSGEIPPSCCNFPVAVCRDKMFVFSGQSGAKITNNLFQFEFKDKTWTRIPTEHLLRGSPPPPQRRYGHTMVAFDRHLYVFGGAADNTLPNELHCYDVDFQTWEVVQPSSDSEVGGAEVPERACASEEVPTLTYEERVGFKKSRDVFGLDFGTTSAKQPTQPASELPSGRLFHAAAVISDAMYIFGGTVDNNIRSGEMYRFQFSCYPKCTLHEDYGRLWESRQFCDVEFVLGEKEECVQGHVAIVTARSRWLRRKITQARERLAQKLEQEAAPVPREAPGVAAGGARPPLLHVAIREAEARPFEVLMQFLYTDKIKYPRKGHVEDVLLIMDVYKLALSFQLCRLEQLCRQYIEASVDLQNVLVVCESAARLQLSQLKEHCLNFVVKESHFNQVIMMKEFERLSSPLIVEIVRRKQQPPPRTPLDQPVDIGTSLIQDMKAYLEGAGAEFCDITLLLDGHPRPAHKAILAARSSYFEAMFRSFMPEDGQVNISIGEMVPSRQAFESMLRYIYYGEVNMPPEDSLYLFAAPYYYGFYNNRLQAYCKQNLEMNVTVQNVLQILEAADKTQALDMKRHCLHIIVHQFTKVSKLPTLWSLSQQLLLDIIDSLASHISDKQCAELGADI
notes: Stably expressed in U87 cells by lentivirus; also called LZTR1-FLAG-R810W; LZTR1 RW; not shown: FLAG tag
In the case of B1, the binding result in the assay with RNF123 and with SNX14 was “binds” in each case.
